Changes are numbered by the printed parent chain. Starred links: 1 amine or outer side, 2 acyl side, 3 side chain; linkers in the order of their positions; H or OH if unused. Non-standard residues stand in square brackets, D forms with d. Groups on a side chain read outwards from the residue. No end group written: not given here. *: point of attachment. C18 diacid = O=C(O)CCCCCCCCCCCCCCCCC(=O)*; γGlu = O=C(O)[C@H](CCC(=O)[*:2])N[*:1]; εLys = N[C@@H](CCCCN[*:1])C(=O)[*:2]; AEEA = NCCOCCOCC(=O)O; Aib = CC(C)(N)C(=O)O
T1: human neuropeptide Y2 receptor (human, UniProt P49146 1-381)
T1 sequence (looked up): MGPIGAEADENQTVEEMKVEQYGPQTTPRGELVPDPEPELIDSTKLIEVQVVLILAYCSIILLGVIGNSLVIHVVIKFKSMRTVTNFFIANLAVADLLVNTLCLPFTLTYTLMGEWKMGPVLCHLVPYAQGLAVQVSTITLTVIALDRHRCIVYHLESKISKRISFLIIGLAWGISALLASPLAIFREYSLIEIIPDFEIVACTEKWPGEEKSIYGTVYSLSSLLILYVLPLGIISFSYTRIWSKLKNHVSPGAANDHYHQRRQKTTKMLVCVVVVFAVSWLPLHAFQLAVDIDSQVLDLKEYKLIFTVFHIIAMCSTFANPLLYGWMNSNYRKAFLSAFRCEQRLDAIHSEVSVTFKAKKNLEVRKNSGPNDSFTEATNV

T2: human GIP receptor (human, UniProt P48546 22-466)
T2 sequence (looked up): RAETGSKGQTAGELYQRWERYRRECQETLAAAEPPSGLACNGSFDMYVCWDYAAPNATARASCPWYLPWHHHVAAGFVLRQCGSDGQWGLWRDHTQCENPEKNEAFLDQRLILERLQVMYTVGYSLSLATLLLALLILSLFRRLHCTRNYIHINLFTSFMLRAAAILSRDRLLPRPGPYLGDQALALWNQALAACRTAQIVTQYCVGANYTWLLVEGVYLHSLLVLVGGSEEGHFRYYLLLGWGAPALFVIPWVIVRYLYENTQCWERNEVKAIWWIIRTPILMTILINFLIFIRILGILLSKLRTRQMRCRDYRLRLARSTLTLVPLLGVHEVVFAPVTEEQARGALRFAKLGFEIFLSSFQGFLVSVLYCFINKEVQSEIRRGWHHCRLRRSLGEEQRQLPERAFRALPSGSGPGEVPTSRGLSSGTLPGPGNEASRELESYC

B1: Compound 153 (peptide)
peptide: YXEGTFTSDYSIXLEKQAQXEFVQWLIKGGPSEGASLRHYYNWLTRQRY
modifications: Aib at 2, 13, 20; K28 side chain: C18DA-gGlu-gGlu-gGlu-gGlu-gGlu-gGlu-eLys; C-terminal NH2
B2: Compound 149 (peptide)
peptide: B1 peptide with E21A, S32E
modifications: Aib at 2, 13, 20; K28 side chain: C18DA-gGlu-gGlu-gGlu-gGlu-gGlu-gGlu-eLys; C-terminal NH2

What follows are binders tested against human GLP-1 receptor (human, UniProt P43220 24-463) (assay: cell-based or functional assay).

| Binder | EC50 CreLuc hGLP1R 0.5% hP | EC50 CreLuc hGLP1R 100% hP |
| --- | --- | --- |
| B1 | 0.25 nM | 6.12 nM |
| B2 | 0.15 nM | 4.76 nM |
| Y[Aib]EGTFTSDYSI[Aib]LEKQAQ[Aib]AFVEWLIK([εLys-γGlu-γGlu-γGlu-γGlu-γGlu-C18 diacid])GGPESGASLRHYYNWLTRQRY-NH2 [Compound 152] | 0.13 nM | 4.24 nM |
| Y[Aib]EGTFTSDYSI[Aib]LEKQAQ[Aib]AFVEWLIK([AEEA-AEEA-γGlu-γGlu-γGlu-γGlu-C18 diacid])GGPSSPASLRHYYNWLTRQRY-NH2 [Compound 158] | 0.09 nM | 3.25 nM |
| Y[Aib]EGTFTSDYSI[Aib]LEKQAQ[Aib]EFVQWLIK([AEEA-AEEA-Glu-Glu-Glu-C18 diacid])GGPSEGASLRHYYNWLTRQRY-NH2 [Compound 157] | 0.35 nM | 9.05 nM |
| Y[Aib]EGTFTSDYSI[Aib]LEKQAQ[Aib]EFVEWLIK([AEEA-AEEA-γGlu-γGlu-γGlu-γGlu-C18 diacid])GGPSSGASLRHYYNWLTRQRY-NH2 [Compound 145] | 0.31 nM | 7.29 nM |
| Y[Aib]EGTFTSDYSI[Aib]LEKQAQ[Aib]EFVQWLIK([εLys-γGlu-γGlu-γGlu-γGlu-γGlu-C18 diacid])GGPSEGASLRHYYNWLTRQRY-NH2 [Compound 154] | 0.26 nM | 6.65 nM |
| Y[Aib]EGTFTSDYSI[Aib]LEKQAQ[Aib]AFVQWLIK([AEEA-AEEA-γGlu-γGlu-γGlu-C18 diacid])GGPEEGASLRHYYNWLTRQRY-NH2 [Compound 144] | 0.16 nM | 5.59 nM |
| Y[Aib]EGTFTSDYSI[Aib]LEKQAE[Aib]AFVEWLIK([AEEA-AEEA-γGlu-γGlu-γGlu-γGlu-C18 diacid])GGPSSGASLRHYYNWLTRQRY-NH2 [Compound 150] | 0.31 nM | 8.35 nM |
| Y[Aib]EGTFTSDYSI[Aib]LEKQAQ[Aib]AFVQWLIK([AEEA-AEEA-γGlu-γGlu-γGlu-γGlu-C18 diacid])GGPEEGASLRHYYNWLTRQRY-NH2 [Compound 146] | 0.14 nM | 4.27 nM |

What follows are binders tested against T1, human neuropeptide Y2 receptor (assay: cell-based or functional assay).

| Binder | EC50 CreLuc hNPY2R 0.5% hP | EC50 CreLuc hNPY2R 100% hP |
| --- | --- | --- |
| B1 | 18.9 nM | 58.5 nM |
| B2 | 18.6 nM | 40.3 nM |
| Y[Aib]EGTFTSDYSI[Aib]LEKQAQ[Aib]AFVEWLIK([εLys-γGlu-γGlu-γGlu-γGlu-γGlu-C18 diacid])GGPESGASLRHYYNWLTRQRY-NH2 [Compound 152] | 12.6 nM | 39.1 nM |
| Y[Aib]EGTFTSDYSI[Aib]LEKQAQ[Aib]AFVEWLIK([AEEA-AEEA-γGlu-γGlu-γGlu-γGlu-C18 diacid])GGPSSPASLRHYYNWLTRQRY-NH2 [Compound 158] | 15.8 nM | 39.9 nM |
| Y[Aib]EGTFTSDYSI[Aib]LEKQAQ[Aib]EFVQWLIK([AEEA-AEEA-Glu-Glu-Glu-C18 diacid])GGPSEGASLRHYYNWLTRQRY-NH2 [Compound 157] | 23.6 nM | 86.9 nM |
| Y[Aib]EGTFTSDYSI[Aib]LEKQAQ[Aib]EFVEWLIK([AEEA-AEEA-γGlu-γGlu-γGlu-γGlu-C18 diacid])GGPSSGASLRHYYNWLTRQRY-NH2 [Compound 145] | 11.9 nM | 31.8 nM |
| Y[Aib]EGTFTSDYSI[Aib]LEKQAQ[Aib]EFVQWLIK([εLys-γGlu-γGlu-γGlu-γGlu-γGlu-C18 diacid])GGPSEGASLRHYYNWLTRQRY-NH2 [Compound 154] | 10.7 nM | 21.6 nM |
| Y[Aib]EGTFTSDYSI[Aib]LEKQAQ[Aib]AFVQWLIK([AEEA-AEEA-γGlu-γGlu-γGlu-C18 diacid])GGPEEGASLRHYYNWLTRQRY-NH2 [Compound 144] | 15.8 nM | 48.7 nM |
| Y[Aib]EGTFTSDYSI[Aib]LEKQAE[Aib]AFVEWLIK([AEEA-AEEA-γGlu-γGlu-γGlu-γGlu-C18 diacid])GGPSSGASLRHYYNWLTRQRY-NH2 [Compound 150] | 16.7 nM | 62.7 nM |
| Y[Aib]EGTFTSDYSI[Aib]LEKQAQ[Aib]AFVQWLIK([AEEA-AEEA-γGlu-γGlu-γGlu-γGlu-C18 diacid])GGPEEGASLRHYYNWLTRQRY-NH2 [Compound 146] | 14 nM | 38.8 nM |

The binders below were run against T2, human GIP receptor (assay: cell-based or functional assay).

| Binder | EC50 CreLuc hGIPR 0.5% hP | EC50 CreLuc hGIPR 100% hP |
| --- | --- | --- |
| B1 | 0.22 nM | 1.21 nM |
| B2 | 0.58 nM | 0.79 nM |
| Y[Aib]EGTFTSDYSI[Aib]LEKQAQ[Aib]AFVEWLIK([εLys-γGlu-γGlu-γGlu-γGlu-γGlu-C18 diacid])GGPESGASLRHYYNWLTRQRY-NH2 [Compound 152] | 0.4 nM | 0.96 nM |
| Y[Aib]EGTFTSDYSI[Aib]LEKQAQ[Aib]AFVEWLIK([AEEA-AEEA-γGlu-γGlu-γGlu-γGlu-C18 diacid])GGPSSPASLRHYYNWLTRQRY-NH2 [Compound 158] | 0.11 nM | 0.84 nM |
| Y[Aib]EGTFTSDYSI[Aib]LEKQAQ[Aib]EFVQWLIK([AEEA-AEEA-Glu-Glu-Glu-C18 diacid])GGPSEGASLRHYYNWLTRQRY-NH2 [Compound 157] | 0.38 nM | 1.58 nM |
| Y[Aib]EGTFTSDYSI[Aib]LEKQAQ[Aib]EFVEWLIK([AEEA-AEEA-γGlu-γGlu-γGlu-γGlu-C18 diacid])GGPSSGASLRHYYNWLTRQRY-NH2 [Compound 145] | 0.28 nM | 1.23 nM |
| Y[Aib]EGTFTSDYSI[Aib]LEKQAQ[Aib]EFVQWLIK([εLys-γGlu-γGlu-γGlu-γGlu-γGlu-C18 diacid])GGPSEGASLRHYYNWLTRQRY-NH2 [Compound 154] | 0.4 nM | 1.07 nM |
| Y[Aib]EGTFTSDYSI[Aib]LEKQAQ[Aib]AFVQWLIK([AEEA-AEEA-γGlu-γGlu-γGlu-C18 diacid])GGPEEGASLRHYYNWLTRQRY-NH2 [Compound 144] | 1.15 nM | 0.79 nM |
| Y[Aib]EGTFTSDYSI[Aib]LEKQAE[Aib]AFVEWLIK([AEEA-AEEA-γGlu-γGlu-γGlu-γGlu-C18 diacid])GGPSSGASLRHYYNWLTRQRY-NH2 [Compound 150] | 0.27 nM | 1.65 nM |
| Y[Aib]EGTFTSDYSI[Aib]LEKQAQ[Aib]AFVQWLIK([AEEA-AEEA-γGlu-γGlu-γGlu-γGlu-C18 diacid])GGPEEGASLRHYYNWLTRQRY-NH2 [Compound 146] | 0.77 nM | 0.73 nM |
